The target in test [1] is T1, BRAF^V600E (human, UniProt P15056 1-766, V600E, phosphorylated as purified: Ser151, Ser339, Ser365, Thr401, Ser429, Ser432, Ser446, Ser614, Ser675, Ser729, Ser750, Thr753 (mass spectrometry; pSer729 also by western blot)).
T1 construct: human BRAF, full length (84 kDa), oncogenic V600E mutant; A 3C site lies between protein and tag; no cleavage step is described; also called kinase client; not shown: 2xStrep, N-terminal, kept
The experiment in a line: cryo-EM structure; HSP90–CDC37–BRAF^V600E complex incubated with PP5 D274N, purified by SEC, cross-linked with 1 mM BS3; one sample gave three classes: HCK (3.4 Å), HCK-P open (4.2 Å), HCK-P closed (3.9 Å); PP5 modelled by rigid-body docking. Particulars: both partners purified. (In general: SEC sorts molecules by how far they enter the pores of the column.)

In test [2] the target is T2, HSP90β (human, UniProt P08238 1-724, phosphorylation at Ser226 and Ser255 found by mass spectrometry).
T2 construct: human HSP90β, full length; A 3C protease site lies between protein and tag; no cleavage step is described; Captured on Talon resin during the co-purification; source: co-purified (Talon, Streptactin, Superdex S200); not shown: His8, N-terminal, kept
T2 sequence (P08238 whole entry): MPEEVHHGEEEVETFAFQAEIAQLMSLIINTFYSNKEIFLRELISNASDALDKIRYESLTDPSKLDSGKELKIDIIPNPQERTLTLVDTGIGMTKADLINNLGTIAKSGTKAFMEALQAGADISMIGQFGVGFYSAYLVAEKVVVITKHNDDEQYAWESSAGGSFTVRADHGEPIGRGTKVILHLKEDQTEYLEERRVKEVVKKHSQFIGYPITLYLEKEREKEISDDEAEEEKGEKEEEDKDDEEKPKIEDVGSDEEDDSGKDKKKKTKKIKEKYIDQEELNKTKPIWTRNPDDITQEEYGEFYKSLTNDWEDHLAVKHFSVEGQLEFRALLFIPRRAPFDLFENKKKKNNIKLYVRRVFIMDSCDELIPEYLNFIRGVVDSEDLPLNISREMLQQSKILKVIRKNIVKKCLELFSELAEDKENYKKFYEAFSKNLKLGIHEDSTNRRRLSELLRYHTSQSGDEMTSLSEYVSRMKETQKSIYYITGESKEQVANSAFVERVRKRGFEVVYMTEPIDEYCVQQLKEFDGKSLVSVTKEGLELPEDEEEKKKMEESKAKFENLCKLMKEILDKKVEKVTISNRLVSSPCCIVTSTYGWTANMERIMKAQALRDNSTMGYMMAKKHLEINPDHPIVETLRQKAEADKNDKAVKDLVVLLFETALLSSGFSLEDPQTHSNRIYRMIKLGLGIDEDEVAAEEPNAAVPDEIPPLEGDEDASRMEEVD
The description is as above. As to conditions: both partners purified.

T1 sequence (P15056 whole entry V600E): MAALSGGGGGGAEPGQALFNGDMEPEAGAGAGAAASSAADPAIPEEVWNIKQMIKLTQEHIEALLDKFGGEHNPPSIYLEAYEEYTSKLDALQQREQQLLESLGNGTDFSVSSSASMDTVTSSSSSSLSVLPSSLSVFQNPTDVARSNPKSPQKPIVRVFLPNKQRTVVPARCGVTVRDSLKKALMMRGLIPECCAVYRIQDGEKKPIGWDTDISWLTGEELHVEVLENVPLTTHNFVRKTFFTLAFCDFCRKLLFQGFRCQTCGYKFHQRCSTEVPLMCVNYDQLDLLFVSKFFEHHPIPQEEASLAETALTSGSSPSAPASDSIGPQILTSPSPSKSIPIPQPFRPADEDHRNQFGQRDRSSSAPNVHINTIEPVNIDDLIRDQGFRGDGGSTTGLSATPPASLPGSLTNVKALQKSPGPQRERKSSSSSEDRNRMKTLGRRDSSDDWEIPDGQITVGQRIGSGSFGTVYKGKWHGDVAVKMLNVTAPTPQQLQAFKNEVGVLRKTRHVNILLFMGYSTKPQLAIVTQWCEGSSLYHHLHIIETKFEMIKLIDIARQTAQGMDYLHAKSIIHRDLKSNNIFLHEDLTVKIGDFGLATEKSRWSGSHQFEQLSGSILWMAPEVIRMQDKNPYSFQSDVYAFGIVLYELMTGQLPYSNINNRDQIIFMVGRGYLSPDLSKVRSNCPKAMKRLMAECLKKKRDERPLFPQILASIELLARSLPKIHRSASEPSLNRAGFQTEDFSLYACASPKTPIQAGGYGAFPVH

B1: PP5 D274N (enzyme, human, UniProt P53041 16-499, looked up)
chain: RDEPPADGALKRAEELKTQANDYFKAKDYENAIKFYSQAIELNPSNAIYYGNRSLAYLRTECYGYALGDATRAIELDKKYIKGYYRRAASNMALGKFRAALRDYETVVKVKPHDKDAKMKYQECNKIVKQKAFERAIAGDEHKRSVVDSLDIESMTIEDEYSGPKLEDGKVTISFMKELMQWYKDQKKLHRKCAYQILVQVKEVLSKLSTLVETTLKETEKITVCGDTHGQFYDLLNIFELNGLPSETNPYIFNGDFVNRGSFSVEVILTLFGFKLLYPDHFHLLRGNHETDNMNQIYGFEGEVKAKYTAQMYELFSEVFEWLPLAQCINGKVLIMHGGLFSEDGVTLDDIRKIERNRQPPDSGPMCDLLWSDPQPQNGRSISKRGVSCQFGPDVTKAFLEENNLDYIIRSHEVKAEGYEVAHGGRCVTVFSAPNYCDQMGNKASYIHLQGSDLRPQFHQFTAVPHPNVKPMAYANTLLQLGMM
notes: human PP5 (serine/threonine protein phosphatase 5), residues 16-499, D274N; also called catalytically dead PP5
In the case of B1, the binding result in test [1] and in test [2] was “binds” each time.
